Two proteins from patent US7060266 can be followed below.

The target of data set [1] is synthetic Aβ 1-40, P05067.
The target in data set [2] is natural brain APP pretreated with chondroitinase ABC, P05067.
The target in data set [3] is synthetic Aβ 1-42, P05067.
The target of data set [4] is natural brain APP prepared from human hippocampus, P05067.

Positions count from the first letter of the chain named.

B1: human brain carboxypeptidase B, 40 kDa protease (prepro-HBCPB) (protein)
chain: ASASYYEQYHSLNEIYSWIEFITERHPDMLTKIHIGSSFEKYPLYVLKVSGKEQTAKNAIWIDCGIHAREWISPAFCLWFIGHNRMWRKNRSFYANNHCIGTDLNSNFVSKHWCEEGASSSSCSETYCGLYPESEPEVKAVASFLRRNINQIKAYISMHSYSQHIVFPYSYTRSKSKDHEELSLVASEAVRAIDKTSKNTRYTHGHGSETLYLAPGGGDDWIYDLGIKYSFTSNPPVEKLLPLSLK
Take B1: the “digestion of synthetic Aβ 1-40 (Western blot)” value in data set [1] is recorded as “low-molecular weight peptides formed in a dose-dependent manner”. Further, the “proteolysis of chondroitinase ABC-pretreated brain APP” value in data set [2] was “it was shown that the reaction is almost completely inhibited”. Further, the “digestion of synthetic Aβ 1-42 (Western blot)” value in data set [3] is recorded as “low-molecular weight peptides formed in a dose-dependent manner”. Besides, in data set [4], the “proteolysis of natural brain APP (Western blot with anti Aβ 1/14 antibody)” value is reported as “the 40 kDa protein degraded natural brain APP, generating a 5.5 kDa fragment as the major component of the 3 to 11 kDa Aβ-containing peptides”.

B2: human brain carboxypeptidase B, 30 kDa mature form (protein)
chain: B1 chain with S106R, V109A, D194E
For the protein B2, the “proteolytic activity of native-PAGE fractions for natural brain APP” value in data set [4] is “fraction 19 with a molecular mass of about 40 kDa and fraction 11 with a molecular mass of about 30 kDa had similar proteolytic activities”.
